From US20100028352A1

Target: Gi-GPCRs on endothelial cells
Assay: cell-based or functional assay

- inhibition of forskolin-stimulated cAMP production, 25 and 100 nM uncleaved GlyRS: 10%
Substance: Full-length recombinant human GlyRS (from UniProt P41250 55-739) (enzyme)
